According to publication PMC4447588:

Experiments:
[1] = test system: Cc1cc2nc3c(=O)[nH]c(=O)nc-3n(C[C@H](O)[C@H](O)[C@H](O)COP(=O)(O)O)c2cc1C; experiment: purified protein; details: NADPH, pH 7.0, 37 °C, varied: cofactor
[2] = test system: NC(=O)C1=CN([C@@H]2O[C@H](COP(=O)(O)OP(=O)(O)OC[C@H]3O[C@@H](n4cnc5c(N)ncnc54)[C@H](OP(=O)(O)O)[C@@H]3O)[C@@H](O)[C@H]2O)C=CC1; experiment: purified protein; details: FMN, pH 7.0, 37 °C

Question: What does the source list for PpArsH (Pseudomonas putida KT2440)?
Answer: K0.5 [1]: 7.8 µM; Km [2]: 74 µM
